Assay results taken from patent US12673985B2, “Method for the treatment or prophylaxis of cancer by targeting the extracellular portion of keratin 14 (KRT14) residing on cancer cells” (Hudson Institute of Medical Research, priority 2019, dated 2026).
“Also recorded” adds a separate entry of the source.

Legend:
[1] = tested on: ID8 ovarian tumour; settings: mouse, in vivo
Experimental: Control mice received vehicle (PBS) alone. At time points from 4 hr to 7 days post-injection, mice were culled and selected tissues (liver, kidney, spleen, intestine, ovary+fallopian tube/ovarian tumour (as relevant), brain, heart, lung) were harvested. Tissue distribution and clearance were assessed by ALEXA647 or ALEXA750 fluorescence using an IVIS Lumina III Imaging System (Perkin Elmer). Bright-field (auto-exposure) and fluorescence imaging (ALEXA647 ex640, em670; or ALEXA750 ex740, em790 nm). Spectral unmixing and image analysis were performed as previously described (PMID: 30602661; Wilson et al., Cancers (Basel). 2018 Dec. 31; 11(1), E32). Background average radiant efficiency from vehicle-treated animals were subtracted from fluorescence measurements in each case, and the resulting data plotted for comparison.

[2] = target: T1, KRT14 (Homo sapiens, UniProt P02533); test: Immunofluorescence staining of ovarian cancer cell lines SKOV-3, Ovcar4 and Cov362.3; format: cell-based; design: endogenous in cells; host or cells: SKOV-3, Ovcar4, Cov362.3; settings: 1 μg/ml
T1 sequence (P02533 1-472): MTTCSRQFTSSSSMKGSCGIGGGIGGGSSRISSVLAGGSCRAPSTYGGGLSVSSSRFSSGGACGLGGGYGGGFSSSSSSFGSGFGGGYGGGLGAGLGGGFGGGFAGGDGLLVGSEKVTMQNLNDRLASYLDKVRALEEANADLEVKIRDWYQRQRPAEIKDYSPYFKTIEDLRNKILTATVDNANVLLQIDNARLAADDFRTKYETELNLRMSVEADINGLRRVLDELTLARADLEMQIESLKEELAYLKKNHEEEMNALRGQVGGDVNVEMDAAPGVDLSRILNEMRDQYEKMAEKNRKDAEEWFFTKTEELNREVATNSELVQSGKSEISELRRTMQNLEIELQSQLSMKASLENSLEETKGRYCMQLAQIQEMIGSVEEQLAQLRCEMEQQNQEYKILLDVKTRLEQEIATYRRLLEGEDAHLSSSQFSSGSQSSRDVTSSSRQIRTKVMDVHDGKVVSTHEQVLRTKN
Experimental: The ovarian cancer cell lines SKOV-3, Ovcar4 and Cov362.3 were seeded onto 96 well black fluortrac imaging plates. Intact or fixed (1% paraformaldehyde; PFA) and permeabilized (0.1% Triton X) cells were stained using mAb AN-17. For fixed cells, samples were blocked in 10% fetal bovine serum (FBS) and then stained with 1 μg/ml mAb AN-17 for one hour at room temperature. Cells were subsequently washed with PBS and stained with the Alexa Fluor®-647 goat anti-mouse secondary at 1:2000 for one hour at room temperature. For intact cells, samples were stained with 1 μg/ml mAb AN-17 conjugated to Alexa-647 in PBS containing 1% FBS for two hours at 37° C., the medium was replaced with fresh PBS/1% FBS and cells were immediately imaged. Samples were imaged using the Cytation 3 multimode reader at 4× magnification.

[3] = target: T1, KRT14; test: Immunohistochemical staining of FFPE tumour tissue sections; settings: 2 μg/ml-0.25 μg/ml, overnight incubation
Experimental: Human Tissue Arrays and Immunohistochemistry. Immunohistochemistry was performed on tissue micrarray (TMA) sections purchased from USBIOMAX (#ov2085, #ov20811) or generated in house (tumour and fallopian tube) as previously described [Bilandzic et al. (2014) Cancer Lett 354(1):107-114; Rainczuk et al. (2013) J Proteome Res; Salamonsen et al. (2013) Fertil Steril 99(4):1086-92](Supplementary Data 6 and 7). For antigen retrieval, sections were incubated for 10 minutes in 50 mM glycine (pH 3.5) at 90° C. Sections were incubated overnight at 4° C. with Rb-KRT14 antibody (1:100, Sigma, SAB4501657) and mAb AN-17 (1:500) in 0.1% w/v BSA/PBS. Subsequent steps were performed at room temperature, with PBS washes between incubations. […] Antibody binding was detected as a brown precipitate after development with 3,3′-diaminobenzidine tetrahydrochloride, and Harris hematoxylin was used as counterstain. […] Positive immunostaining was assessed relative to parallel sections exposed to an isotype (IgG) control. Immunostaining in tumor and stromal tissue was assessed using Aperio ImageScope (v 12.3.3) as described (Rainczuk et al. (2013) supra). […]

[4] = Tissue distribution and clearance by fluorescence in mice without tumours; format: in vivo
Source text: Control mice received vehicle (PBS) alone.

[5] = tested on: OVCAR4 ovarian cancer cells; test: Real time cell analysis (RTCA) of proliferation with cisplatin and mAb AN-17; format: cell-based, human
Experimental: Real time cell analysis (RTCA) was conducted as previously described (PMID: 31443478; Bilandzic et al., Cancers (Basel). 2019; 11(9), E1228) using an xCELLigence RTCA SP 96-well instrument (ACEA Biosciences). Cell lines were synchronized in G0 by overnight incubation in serum-free media and were seeded at 0.5×10^3 cells/0.15 ml/per well. […] Impedance readings were taken every 15 minutes for the experimental duration. mAb AN-17 comprises the heavy chain variable region of SEQ ID NO:3 and the light chain variable region of SEQ ID NO:5, encoded by the nucleic acid sequences of SEQ ID NOs:2 and 4, respectively (see also FIGS. 21 and 22A-22B).

B1: mAb AN-17: monoclonal anti-KRT14 antibody; heavy chain variable region SEQ ID NO:3, light chain variable region SEQ ID NO:5 (clone AN-17A RG4.E5b.A7.B4) (antibody, listed as Mus musculus, V domains shown)
VH: QVQLKESGPGLVAPSQSLSITCTVSGFSLSRYSVHWVRQPPGKGLEWLGMIWGGGSTDYNSALKSRLSISKDNSKSQVFLKMNSLQTDDTAMYYCARKDYGYSYFDYWGQGTTLTVSS
VL: DVLMTQTPLSLPVSLGDQASISCRSSQSIVHSNGNTYLEWYLQKPGQSPKLLIYKVSNRFSGVPDRFSGSGSGTDFTLKISRVEAEDLGVYYCFQGSHVPFTFGSGTKLEIKRADAAPTVS
[1]
  initial levels in tumour tissue vs reproductive tract of mice without tumours: 2 orders of magnitude
[2]; fixed and permeabilized cells
  staining localization: Specific intracellular cytoplasmic localization
[2]; intact live cells
  staining localization: predominant cell surface localization
[3]
  staining localization in tumour tissue: Staining was restricted to tumour epithelium
[3]; listed as mAb A-17
  staining localization in tumour tissue: staining observed specifically in the tumour epithelium
[4]; doses from 0.5 mg/kg to 10 mg/kg i.p.
  non-selective accumulation or retention in healthy tissues: does not exhibit non-selective accumulation or retention in healthy tissues; also recorded: No non-specific retention
[4]; doses from 0.5 mg/kg to 10 mg/kg i.p., even at the highest dose
  detectability in organs after 7 days: virtually undetectable in all organs after 7 days; also recorded: largely undetectable after 7 days
[4]; single dose 0.5 mg/kg i.p.
  antibody-associated fluorescence in brain: no fluorescence was detected in brain
  tissues with antibody-associated fluorescence: observed in intestine, reproductive organs, liver, kidney, spleen, lung and heart
[4]; single dose 0.5 mg/kg i.p., 7 day period, 0.5 mg/kg
  specific accumulation / non-specific retention in healthy tissues vs isotype control: no specific accumulation; also recorded: no non-specific retention
[4]; single dose 0.5 mg/kg i.p., 0.5 mg/kg
  clearance from organs by day 7: largely cleared from all organs; also recorded: almost undetectable after 7 days
[5]; cisplatin at sub-lethal doses
  enhancement of the toxicity of cisplatin: significantly enhanced the toxicity of cisplatin
[5]; in vitro
  increase in sensitivity of cells to standard platinum chemotherapy: at least 10 fold
[5]; mAb AN-17 alone (1 ug/ml)
  cell viability or proliferation: had no effect on cell viability or proliferation
